The nature of this series: protein stability index of a GFP-peptide fusion (GPS, HEK-293T) (PSI 1-6); higher = more stable.
Where [1] appears, read: treatment: DMSO, c terminus: a fixed tail appended.
[2] abbreviates: treatment: MLN4924 1 uM, 8 h, c terminus: a fixed tail appended.

± gives the standard deviation.
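Further: 24-mer peptide tiles fused after GFP, lentivirally expressed, FACS-sorted into six equal bins by GFP/DsRed ratio, decoded by Illumina sequencing, PSI is the read-weighted mean bin number.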

In the case of FVIGHLKGAPASWWNHMHFQHHAK [FADS1], the protein stability index is, setting by setting: under setting [1], 2.65 ± 0.89; under setting [2], 2.24 ± 0.47.

Consider FVKILKDFPEEDDPTNWLRCYYYE [NCF4], for which the protein stability index came out at 2.25 ± 0.28 under setting [1] and 2.55 ± 0.6 under setting [2].

Take FWNFKQMWDSKKIGLRQHHCRKCG [WDFY2]: the protein stability index by setting is: under setting [1], 2.34 ± 0.28; under setting [2], 2.66 ± 0.45.

In the case of FWYREALDISDSISESGGLNWKMT [SLC6A17], the protein stability index under setting [1] is 2.17 ± 0.34 and the protein stability index under setting [2] amounted to 1.92 ± 0.32.

For the sequence FYSTSSGLANGLQLLCPWAPLSGP [VENTX], the protein stability index by setting is: under setting [1], 2.88 ± 0.4; under setting [2], 2.54 ± 0.55.

On to GADGVMRTMAPEKLLKSMPILQGQ [SNAP91], for which the protein stability index was 3.76 ± 0.32 under setting [1] and 3.77 ± 0.28 under setting [2].

Regarding GCMLIELALRGRLQLEACGMRRKS [GOLPH3], the protein stability index was 1.83 ± 0.31 under setting [1] and 2.25 ± 0.28 under setting [2].

In the case of GDPLNCHSYLSGYISLLLRAEPYP [NR2F2], the protein stability index reads like this: under setting [1], 2.76 ± 0.82; under setting [2], 2.71 ± 0.65.

GDWARLLEQMGALAVRGSRREREL [ZBED3] displayed a protein stability index under setting [1] of 3.13 ± 0.51 and a protein stability index under setting [2] of 2.89 ± 0.3.

GEESSKAKEVTIAKADTTSTVTPV [EHMT1] yielded a protein stability index under setting [1] of 5.55 ± 0.27 and a protein stability index under setting [2] of 5.45 ± 0.078.

In the case of GEQEFEALMRMLDNLGYRTGYPYR [ADD1], the protein stability index is, setting by setting: under setting [1], 2.15 ± 0.3; under setting [2], 2.26 ± 0.49.

As to GEREAIQKSVTRSCLLEEEEESGE [POP5], the protein stability index reads like this: under setting [1], 5.53 ± 0.33; under setting [2], 5.65 ± 0.18.

As to GEVLSYLELAQFHNAHQLAAWCLH [RHOBTB1], the protein stability index is, setting by setting: under setting [1], 2.7 ± 0.81; under setting [2], 2.35 ± 0.25.

GFTDRREARKYASNLLKAGFIRHT [DVL3] yielded a protein stability index under setting [1] of 2.66 ± 0.28 and a protein stability index under setting [2] of 2.71 ± 0.32.

On to GGAGSSEDDAQSRRDEQDDDDKGD [GOLPH3], for which the protein stability index stood at 5.57 ± 0.24 under setting [1] and 5.69 ± 0.28 under setting [2].

On to GGDKLETMPLYLEDDIRPDIKDDI [SCD], for which the protein stability index reads like this: under setting [1], 4.9 ± 0.4; under setting [2], 5 ± 0.34.

Regarding GGFDGSRRHTSMERYDPNIDQWSM [KLHL12], the protein stability index runs as follows: under setting [1], 3.76 ± 0.28; under setting [2], 3.89 ± 0.45.

As for GGFGSMLRALGAQIEKTTNREACR [SDE2], the protein stability index is, setting by setting: under setting [1], 3.27 ± 0.41; under setting [2], 3.34 ± 0.13.

Turning to GGFLSESKDCKPPVYLLLELEDKD [MYBL2], the protein stability index by setting is: under setting [1], 3.99 ± 0.21; under setting [2], 4.17 ± 0.32.

GGMLNFMMHDQRTGPAWNVLMWTM [SOAT2]: the protein stability index was determined as 2.49 ± 1.2 under setting [1] and 2.07 ± 0.73 under setting [2].

Consider GGRKGRTLLLQGHHDKVQSLCYLQ [WDFY1], for which the protein stability index runs as follows: under setting [1], 2.54 ± 0.095; under setting [2], 2.73 ± 0.32.

Consider GGSKYLIYRRYRQFHALQSKLEER [NCF4], for which the protein stability index by setting is: under setting [1], 2.45 ± 0.35; under setting [2], 2.45 ± 0.33.

Consider GGSRGAPGLLMAVGQDLYCYSYS [DCAF4], for which the protein stability index reads like this: (treatment: DMSO, c terminus: native) 3.16 ± 0.42; (treatment: MLN4924 1 uM, 8 h, c terminus: native) 3.1 ± 1.5.

Take GGVMYISGGITHDTFQKELMCFDP [KLHL13]: the protein stability index runs as follows: under setting [1], 2.23 ± 0.48; under setting [2], 2.33 ± 0.54.

Turning to GIFPLSFVKILKDFPEEDDPTNWL [NCF4], the protein stability index runs as follows: under setting [1], 2.6 ± 0.28; under setting [2], 2.82 ± 0.33.

GIHPLSSSEVDELIHKADEVTLSE [PALM] yielded a protein stability index under setting [1] of 5.35 ± 0.2 and a protein stability index under setting [2] of 5.23 ± 0.12.

In the case of GISALVEIPKNCVVAAVGKELIIF [WDR41], the protein stability index reads like this: under setting [1], 2.01 ± 1.1; under setting [2], 2.69 ± 1.3.

GKGEARARLKRSQSFGVASASSIK [SMTNL2] gave a protein stability index under setting [1] of 4.6 ± 0.43 and a protein stability index under setting [2] of 4.61 ± 0.38.

As to GKGSGGNAGSYIPSYTSWYPSAHQ [DLX1], the protein stability index came to 2.56 ± 0.43 under setting [1] and 2.69 ± 0.48 under setting [2].

The values are drawn from the supplement of paper PMC10567573.
